Data from patent publication US20250034256A1 (EUCURE BEIJING BIOPHARMA, published 2025).
Residue numbers refer to the chain shown, from its start. In names and notes the source's numbering stands.

B1: 3F1-mHvKv-IgG4-S228P (antibody, V domains shown)
VH: QVQLQQSGAELAKPGASVKMSCKASGYTFTSYWMHWVKQRPGQGLEWIGYINPSTGYTEYNQKFKDKATLTADKSSSTAYMQLSSLTSEDSAVYYCARGVRYYFDYWGQGTTLTVSS
VL: DIVMSQSPSSLAVSAGEKVTMSCKSSQSLLNSRTRKNYLAWYQQKPGQSPKLLIYWASTRESGVPDRFTGSGSGTDFTLTISSVQAEDLAVYYCKQSYNLLTFGAGTKLELK
notes: Chimeric antibody: mouse 3F1 variable domains, human IgG4 constant domains (CL, CH1, CH2, CH3) with S228P (EU numbering); also called 18-3F1-mHvKv-IgG4-S228P; 3F1-mHyKy-IgG4-S228P
B2: 3F1-H3K2-IgG4-S228P (antibody, V domains shown)
VH: B1 VH with L11V, K67R, K74T, S76T, Q82E, T87R, S91T, T112L
VL: B1 VL with S5T, S9D, A15L, K18R, V19A, T69S, L89V, A105Q
notes: Humanized; human IgG4 constant domains with S228P (EU numbering)
B3: 3F1-H1K2-IgG4-S228P (antibody, V domains shown)
VH: QVQLQQSGAEVKKPGASVKMSCKASGYTFTSYWMHWVRQAPGQGLEWIGYINPSTGYTEYNQKFKDRATLTADTSTSTAYMELSSLRSEDTAVYYCARGVRYYFDYWGQGTLVTVSS
VL: B1 VL with S5T, S9D, A15L, K18R, V19A, T69S, L89V, A105Q
notes: as for B2
B4: 3F1-H1K3-IgG4-S228P (antibody, V domains shown)
VH: B3 VH
VL: B1 VL with S5T, K18R, T69S, L89V, A105Q
notes: as for B2
B5: 3F1-H1K1-IgG4-S228P (antibody, V domains shown)
VH: B3 VH
VL: B1 VL with S5T, S9D, A15L, K18R, V19A, M21I, T69S, L89V, A105Q
notes: as for B2
B6: 1A7-H2K2-IgG4-S228P (antibody, V domains shown)
VH: EVQLVESGGGLVQPGGSLRLSCAASGFTFSSYSMSWVRQAPGKRLEWVAHISSGGSSTYYPDTVKGRFTISRDNSKNTLYLQMNSLRAEDTAMYYCTRQFYYGSSFWYFDVWGAGTTVTVSS
VL: DNVLTQSPATLSVSPGERATLSCKASQSVDFDGDSYMNWYQQKPGQPPRLLIYAASNLESGIPARFSGSGPGTDFTLTISSLEPEDFATYYCQQSNEDPPTFGGGTKVEIK
notes: as for B2
B7: 1A7-H2K3-IgG4-S228P (antibody, V domains shown)
VH: B6 VH
VL: B6 VL with P71S, L82V
notes: as for B2
B8: 1A7-H3K3-IgG4-S228P (antibody, V domains shown)
VH: B6 VH with Q3K
VL: B6 VL with P71S, L82V
notes: as for B2
B9: 1A7-H1K1-IgG4-S228P (antibody, V domains shown)
VH: B6 VH with V5L, A114Q
VL: B6 VL with V13L
notes: as for B2
B10: 1A7-H3K2-IgG4-S228P (antibody, V domains shown)
VH: B6 VH with Q3K
VL: B6 VL
notes: as for B2
B11: 1A7-H1K2-IgG4-S228P (antibody, V domains shown)
VH: B6 VH with V5L, A114Q
VL: B6 VL
notes: as for B2
B12: 1A7-H1K3-IgG4-S228P (antibody, V domains shown)
VH: B6 VH with V5L, A114Q
VL: B6 VL with P71S, L82V
notes: as for B2
B13: 1A7-H2K1-IgG4-S228P (antibody, V domains shown)
VH: B6 VH
VL: B6 VL with V13L
notes: as for B2
B14: 1A7-H3K1-IgG4-S228P (antibody, V domains shown)
VH: B6 VH with Q3K
VL: B6 VL with V13L
notes: as for B2

Molecular target: T1, Histidine-tagged human PD-1 protein (hPD-1-His) (human, UniProt Q15116 25-170, limits assumed)
T1 construct: Soluble analyte in SPR; not shown: histidine tag
T1 sequence (Q15116 25-170 limits assumed): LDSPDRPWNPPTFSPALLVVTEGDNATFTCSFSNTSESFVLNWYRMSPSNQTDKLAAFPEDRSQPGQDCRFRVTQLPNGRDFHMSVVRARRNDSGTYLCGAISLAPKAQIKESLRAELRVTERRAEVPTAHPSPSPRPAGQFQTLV
Assay: SPR (Biacore T200), antibody captured on Protein A chip, hPD-1-His analyte, 1:1 fit
Experimental: The binding affinity of the anti-hPD-1 antibodies were measured using surface plasmon resonance (SPR) using Biacore™ (Biacore™, INC, Piscataway N.J.) T200 biosensor equipped with pre-immobilized Protein A sensor chips.
Histidine-tagged human PD-1 proteins (hPD-1-His) at the concentration of 200, 100, 50, 25, 12.5, 6.25, 3.125, 1.5625 nM were then injected at 30 μL/min for 100 seconds. Dissociation was monitored for 400 seconds. The chip was regenerated after the last injection of each titration with Glycine (pH 2.0, 30 μL/min for 12 seconds).
As a person of ordinary skill in the art would understand, the same method with appropriate adjustments for parameters (e.g., antibody concentration) was performed for each tested antibody.

**Q.** How did the Kd turn out when B1 was run?
**A.** Its Kd is 346 nM.

**Q.** What about the koff of the same binder?
**A.** Its koff is 0.00128 s⁻¹.

**Q.** What about the kon of the same binder?
**A.** The kon was 3700 M⁻¹ s⁻¹.

**Q.** Which Kd does the source give for B2 here?
**A.** Its Kd is 296 nM.

**Q.** And the koff?
**A.** The koff was 0.0015 s⁻¹.

**Q.** What about the kon of the same binder?
**A.** The kon was 5060 M⁻¹ s⁻¹.

**Q.** Which Kd does the source give for B3 here?
**A.** Its Kd is 294 nM.

**Q.** What about the koff of the same binder?
**A.** The koff was 0.00155 s⁻¹.

**Q.** And the kon?
**A.** The kon was 5270 M⁻¹ s⁻¹.

**Q.** What does the source list for B4?
**A.** Kd: 275 nM; koff: 0.00132 s⁻¹; kon: 4790 M⁻¹ s⁻¹

**Q.** B5 was tested. Which Kd did it give?
**A.** The Kd was 376 nM.

**Q.** And the koff?
**A.** The koff was 0.00181 s⁻¹.

**Q.** What about the kon of the same binder?
**A.** Its kon is 4810 M⁻¹ s⁻¹.

**Q.** For B6, which Kd is on record?
**A.** The Kd was 57.8 nM.

**Q.** What about the koff of the same binder?
**A.** The koff was 0.00282 s⁻¹.

**Q.** What about the kon of the same binder?
**A.** The kon was 48800 M⁻¹ s⁻¹.

**Q.** Which Kd does the source give for B7 here?
**A.** The Kd was 11.9 nM.

**Q.** What about the koff of the same binder?
**A.** The koff was 0.00136 s⁻¹.

**Q.** What about the kon of the same binder?
**A.** The kon was 115000 M⁻¹ s⁻¹.

**Q.** Which results are given for B8?
**A.** Kd: 12.9 nM; koff: 0.00132 s⁻¹; kon: 102000 M⁻¹ s⁻¹

**Q.** For B9, which Kd is on record?
**A.** Its Kd is 47.9 nM.

**Q.** What about the koff of the same binder?
**A.** Its koff is 0.00272 s⁻¹.

**Q.** What about the kon of the same binder?
**A.** The kon was 56800 M⁻¹ s⁻¹.

**Q.** How did the Kd turn out when B10 was run?
**A.** Its Kd is 58.2 nM.

**Q.** And the koff?
**A.** The koff was 0.0028 s⁻¹.

**Q.** What about the kon of the same binder?
**A.** Its kon is 48100 M⁻¹ s⁻¹.

**Q.** With B11 as the binder, how does the Kd read?
**A.** Its Kd is 32.1 nM.

**Q.** And the koff?
**A.** The koff was 0.00265 s⁻¹.

**Q.** What about the kon of the same binder?
**A.** The kon was 82600 M⁻¹ s⁻¹.

**Q.** Which Kd does the source give for B12 here?
**A.** Its Kd is 10.1 nM.

**Q.** And the koff?
**A.** Its koff is 0.00119 s⁻¹.

**Q.** And the kon?
**A.** Its kon is 118000 M⁻¹ s⁻¹.

**Q.** With B13 as the binder, how does the Kd read?
**A.** The Kd was 57.3 nM.

**Q.** What about the koff of the same binder?
**A.** Its koff is 0.0028 s⁻¹.

**Q.** And the kon?
**A.** Its kon is 48900 M⁻¹ s⁻¹.

**Q.** For B14, which Kd is on record?
**A.** Its Kd is 39.9 nM.

**Q.** And the koff?
**A.** The koff was 0.00264 s⁻¹.

**Q.** What about the kon of the same binder?
**A.** Its kon is 66200 M⁻¹ s⁻¹.
